One test addresses ADAM-17 (Homo sapiens, UniProt P78536). The experiment in a line: Inhibition of enzymes: ADAM-17 inhibition. The test is classed as biochemical. The following applies: ADAM-17 at level of 400 ng/ml. How it is done:
(§1) Inhibition of insulin degradation enzyme (IDE) is a biological function of CTF. The inhibition reduces insulin degradation in the liver and other tissues and thereby increases insulin levels in the blood. The enzymes for cleavage of the dimers are also potential therapeutic targets. Each of the peptides synthesized in Example 1 was tested for their effect on cleavage and target enzymes (ADAM-17 and IDE at level of 400 ng/ml).

The conditions of test [1]: when administered to patients; cited from earlier work.
The target in test [2] is insulin degradation enzyme (IDE) (Homo sapiens, UniProt P14735). The test can be described thus: Inhibition of enzymes: insulin degradation enzyme (IDE) inhibition. It is filed as biochemical. The following applies: for IDE Inhibition (90% inhibition at): IDE at level of 400 ng/ml, peptide level giving 90% inhibition. How it is done:
as §1

Bridge positions count the residues as written; N and C are the ends. Ends that are not written are not given here. I, II: the chains in the order shown.

Here are results for twelve molecules from patent US8865648B2, “Monomeric and dimeric forms of adiponectin receptor fragments and methods of use” (Siemens Healthcare Diagnostics Inc., priority 2009, dated 2014).

Sequence of ADAM-17 (P78536 215-824): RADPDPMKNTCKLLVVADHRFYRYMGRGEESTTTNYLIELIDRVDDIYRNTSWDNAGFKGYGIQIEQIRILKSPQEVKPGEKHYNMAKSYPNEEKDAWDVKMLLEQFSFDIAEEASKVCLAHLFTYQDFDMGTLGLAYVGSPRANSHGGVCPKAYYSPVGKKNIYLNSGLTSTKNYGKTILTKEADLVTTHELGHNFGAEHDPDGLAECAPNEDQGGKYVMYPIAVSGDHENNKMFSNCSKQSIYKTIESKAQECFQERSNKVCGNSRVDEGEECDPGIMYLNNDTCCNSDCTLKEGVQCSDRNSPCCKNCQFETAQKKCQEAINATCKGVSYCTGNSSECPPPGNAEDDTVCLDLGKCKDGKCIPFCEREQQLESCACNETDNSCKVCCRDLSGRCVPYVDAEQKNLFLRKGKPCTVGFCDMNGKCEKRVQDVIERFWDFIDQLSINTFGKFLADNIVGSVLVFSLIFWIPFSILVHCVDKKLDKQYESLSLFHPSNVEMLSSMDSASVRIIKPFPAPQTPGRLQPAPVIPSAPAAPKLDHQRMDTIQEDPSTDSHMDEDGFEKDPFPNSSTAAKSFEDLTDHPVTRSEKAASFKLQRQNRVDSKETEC

With “VVAGAFVHFHGVSNLQEFRFMIGGGCSEEDAL [R2 CTF32, C-terminal fragment of ADIPOR2, 32 amino acids]”, in the test with ADAM-17, the “ADAM-17 Inhibition (observed)” value is given as “Positive”. Take “VVAAAFVHFYGVSNLQEFRYGLEGGCTDDTLL [R1 CTF32, C-terminal fragment of ADIPOR1, 32 amino acids]”: in the test with ADAM-17, the “ADAM-17 Inhibition (observed)” value is “Positive”. Moreover, the insulin-sensitizing effect result in test [1] was “acted as an insulin-sensitizing agent”. On to HFYGVSNLQEFRYGLEGGCTDDTLL [R1 CTF25], for which, in the test with ADAM-17, the “ADAM-17 Inhibition (observed)” value was “Negative”. As to HFHGVSNLQEFRFMIGGGCSEEDAL [R2 CTF25], in the test with ADAM-17, the “ADAM-17 Inhibition (observed)” value is reported as “Negative”.

With “R1 CTF25 R2 CTF25: SEQ ID NO:5 linked via a disulfide bond to SEQ ID NO:6 (chain 1 HFYGVSNLQEFRYGLEGGCTDDTLL; chain 2 HFHGVSNLQEFRFMIGGGCSEEDAL; disulfide I:19-II:19 (inferred))”, the “ADAM-17 Inhibition (observed)” value in the test with ADAM-17 is “Negative”. Turning to GGCTDDTLL [R1 CTF9], the “ADAM-17 Inhibition (observed)” value in the test with ADAM-17 was “Negative”. The “IDE Inhibition (90% inhibition at)” value in test [2] is listed as “negative”.

On to GGCSEEDAL [R2 CTF9], for which the “ADAM-17 Inhibition (observed)” value with ADAM-17 is “Negative”. The “IDE Inhibition (90% inhibition at)” value in test [2] is recorded as “Negative”. Regarding LQEFRYGLEGGCTDDTLL [R1 CTF17], the “ADAM-17 Inhibition (observed)” value with ADAM-17 is recorded as “Negative”. Further, in test [2], the “IDE Inhibition (90% inhibition at)” value is given as “negative”.

Take “HVLVVAAAFVHFYGVSNLQEFRYGLEGGCT [R1 CTF30]”: the “ADAM-17 Inhibition (observed)” value with ADAM-17 was “Negative”. For the same molecule, the “IDE Inhibition (90% inhibition at)” value in test [2] is listed as “Negative”.

B1: R1 CTF32 R2 CTF32: SEQ ID NO:1 linked via a disulfide bond to SEQ ID NO:2 (peptide)
chain 1: VVAAAFVHFYGVSNLQEFRYGLEGGCTDDTLL
chain 2: VVAGAFVHFHGVSNLQEFRFMIGGGCSEEDAL
modifications: disulfide I:26-II:26 (inferred)
For B1, the “ADAM-17 Inhibition (observed)” value with ADAM-17 is “Positive”. Moreover, the “activity of heterodimer compared with corresponding homodimers” value in test [2] (comparison drawn from the data in TABLE 2) is listed as “more active than the corresponding homodimers”.

B2: R1 CTF32 R1 CTF32: SEQ ID NO:1 linked via a disulfide bond to SEQ ID NO:1 (peptide)
chain 1: VVAAAFVHFYGVSNLQEFRYGLEGGCTDDTLL
chain 2: VVAAAFVHFYGVSNLQEFRYGLEGGCTDDTLL
modifications: disulfide I:26-II:26 (inferred)
Regarding B2, in the test with ADAM-17, the “ADAM-17 Inhibition (observed)” value was “Positive”.

B3: R2 CTF32 R2 CTF32: SEQ ID NO:2 linked via a disulfide bond to SEQ ID NO:2 (peptide)
chain 1: VVAGAFVHFHGVSNLQEFRFMIGGGCSEEDAL
chain 2: VVAGAFVHFHGVSNLQEFRFMIGGGCSEEDAL
modifications: disulfide I:26-II:26 (inferred)
With B3, in the test with ADAM-17, the “ADAM-17 Inhibition (observed)” value was “Positive”.
